Here are results for one substance from article doi:10.1101/2023.11.08.566258.

The test concerns the target Prominin-1 (Prom1) W795R, C-terminally Strep-tagged (human). Description: co-IP; EVs from cells co-transfected with Strep-tagged and mScarlet-tagged Prom1, solubilized with 1% DDM; Strep resin; co-purified Prom1-mScarlet measured by fluorescence imaging of the resin beads (CY3 filter set); control with Prom1-mScarlet alone.

“Prominin-1 (Prom1) W795R, C-terminally Strep-tagged (natural protein)” displayed a co-purified mScarlet fluorescence, percent of WT Prom1 of 60%.
